Reference: the supplement of paper PMC10065799, “High-throughput profiling of sequence recognition by tyrosine kinases and SH2 domains using bacterial peptide display” (eLife, 2023)

Tests used:
FGFR1 = FGFR1 (UniProt P11362); assay: phosphorylation enrichment, bacterial display (enrichment ratio); higher = better substrate or ligand; peptides without Tyr show the background
c-Abl (mouse) = assay: as above
FGFR3 = FGFR3 (UniProt P22607); assay: as above
Fes = Fes (UniProt P07332); assay: as above
Jak2 = Jak2 (UniProt O60674); assay: as above
EPHB1 = EPHB1 (UniProt P54762); assay: as above
c-Src = assay: as above
Fyn = Fyn (UniProt P06241); assay: as above
AncSZ = assay: as above
Fer (mouse) = assay: as above
EPHB2 = EPHB2 (UniProt P29323); assay: as above
Hck = Hck (UniProt P08631); assay: as above
MERTK = MERTK (UniProt Q12866); assay: as above
Grb2 SH2 = Grb2 SH2 (UniProt P62993); assay: SH2 binding enrichment of the phosphorylated peptide, bacterial display (enrichment ratio); higher = better substrate or ligand; peptides without Tyr show the background
c-Src SH2 = assay: as above
SHP2-C SH2 = assay: as above
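For SH2 binding enrichment of the phosphorylated peptide, bacterial display in this document: peptide library displayed on the E. coli surface as eCPX fusions, selected cells deep-sequenced, score is each peptide's frequency after selection divided by its frequency in the input.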
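For phosphorylation enrichment, bacterial display in this document: 11-residue human phosphosite peptides and single-mutation variants displayed on the E. coli surface, counted by deep sequencing, each peptide's frequency after selection divided by its frequency in the unselected input library; frequency after pTyr selection over input frequency; kinase dosed for 20-30% of maximal phosphorylation in three min.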

Chain of Fyn (P06241 whole entry, looked up): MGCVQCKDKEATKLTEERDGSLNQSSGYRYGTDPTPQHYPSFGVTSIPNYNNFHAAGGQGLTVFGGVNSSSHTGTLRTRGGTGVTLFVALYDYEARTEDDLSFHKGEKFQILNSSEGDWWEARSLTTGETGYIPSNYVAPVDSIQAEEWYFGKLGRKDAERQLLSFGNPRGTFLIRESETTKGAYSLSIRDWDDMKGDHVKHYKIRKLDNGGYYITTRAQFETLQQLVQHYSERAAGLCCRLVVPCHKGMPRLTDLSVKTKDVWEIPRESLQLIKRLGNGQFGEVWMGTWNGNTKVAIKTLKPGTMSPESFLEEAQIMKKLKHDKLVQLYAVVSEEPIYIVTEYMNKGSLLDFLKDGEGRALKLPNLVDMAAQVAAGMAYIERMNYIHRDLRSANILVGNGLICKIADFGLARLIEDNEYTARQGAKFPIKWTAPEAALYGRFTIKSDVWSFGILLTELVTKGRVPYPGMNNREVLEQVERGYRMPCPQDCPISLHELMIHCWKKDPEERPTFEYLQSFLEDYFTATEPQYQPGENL
Chain of EPHB2 (P29323 whole entry, looked up): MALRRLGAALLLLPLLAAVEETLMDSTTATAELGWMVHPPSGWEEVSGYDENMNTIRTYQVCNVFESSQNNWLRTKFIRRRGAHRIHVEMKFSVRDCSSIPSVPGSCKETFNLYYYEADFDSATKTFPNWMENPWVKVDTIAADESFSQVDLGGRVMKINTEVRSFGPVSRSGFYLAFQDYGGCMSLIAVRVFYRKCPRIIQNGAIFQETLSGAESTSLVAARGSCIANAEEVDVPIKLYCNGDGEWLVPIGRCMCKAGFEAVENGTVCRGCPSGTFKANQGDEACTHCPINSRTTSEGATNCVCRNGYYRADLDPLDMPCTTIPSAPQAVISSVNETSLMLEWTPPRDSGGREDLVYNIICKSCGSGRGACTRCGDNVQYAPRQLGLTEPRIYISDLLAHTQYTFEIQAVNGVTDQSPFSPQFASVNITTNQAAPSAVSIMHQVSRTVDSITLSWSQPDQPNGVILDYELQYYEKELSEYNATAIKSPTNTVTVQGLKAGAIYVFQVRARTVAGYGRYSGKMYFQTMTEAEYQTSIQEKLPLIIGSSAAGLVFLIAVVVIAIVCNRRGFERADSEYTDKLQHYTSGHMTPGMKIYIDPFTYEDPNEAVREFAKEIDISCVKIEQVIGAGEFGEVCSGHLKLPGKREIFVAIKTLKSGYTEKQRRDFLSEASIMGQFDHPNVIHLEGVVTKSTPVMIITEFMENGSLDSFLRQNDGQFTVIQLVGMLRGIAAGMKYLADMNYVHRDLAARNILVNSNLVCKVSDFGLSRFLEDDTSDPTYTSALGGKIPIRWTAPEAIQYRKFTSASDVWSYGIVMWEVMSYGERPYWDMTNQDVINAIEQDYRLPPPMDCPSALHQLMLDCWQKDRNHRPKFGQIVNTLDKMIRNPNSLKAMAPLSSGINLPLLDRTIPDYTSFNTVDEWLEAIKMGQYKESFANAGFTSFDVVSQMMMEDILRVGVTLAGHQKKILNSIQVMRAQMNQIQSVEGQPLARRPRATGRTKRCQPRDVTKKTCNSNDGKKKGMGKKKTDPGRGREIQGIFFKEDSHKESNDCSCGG
Chain of Hck (P08631 whole entry, looked up): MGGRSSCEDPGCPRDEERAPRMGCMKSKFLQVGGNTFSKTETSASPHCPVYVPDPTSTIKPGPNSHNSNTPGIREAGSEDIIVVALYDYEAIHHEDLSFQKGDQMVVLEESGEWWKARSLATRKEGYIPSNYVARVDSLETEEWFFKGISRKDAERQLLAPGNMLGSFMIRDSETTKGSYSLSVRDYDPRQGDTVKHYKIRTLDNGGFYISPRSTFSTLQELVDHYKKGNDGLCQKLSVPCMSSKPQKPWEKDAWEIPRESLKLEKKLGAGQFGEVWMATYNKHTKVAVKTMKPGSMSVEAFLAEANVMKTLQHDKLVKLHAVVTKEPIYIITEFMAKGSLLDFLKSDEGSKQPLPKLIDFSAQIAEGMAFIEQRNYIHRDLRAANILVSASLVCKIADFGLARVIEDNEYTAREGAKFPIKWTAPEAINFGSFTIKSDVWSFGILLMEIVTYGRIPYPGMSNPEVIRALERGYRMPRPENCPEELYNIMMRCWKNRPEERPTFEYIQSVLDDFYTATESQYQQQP
Chain of Fes (P07332 whole entry, looked up): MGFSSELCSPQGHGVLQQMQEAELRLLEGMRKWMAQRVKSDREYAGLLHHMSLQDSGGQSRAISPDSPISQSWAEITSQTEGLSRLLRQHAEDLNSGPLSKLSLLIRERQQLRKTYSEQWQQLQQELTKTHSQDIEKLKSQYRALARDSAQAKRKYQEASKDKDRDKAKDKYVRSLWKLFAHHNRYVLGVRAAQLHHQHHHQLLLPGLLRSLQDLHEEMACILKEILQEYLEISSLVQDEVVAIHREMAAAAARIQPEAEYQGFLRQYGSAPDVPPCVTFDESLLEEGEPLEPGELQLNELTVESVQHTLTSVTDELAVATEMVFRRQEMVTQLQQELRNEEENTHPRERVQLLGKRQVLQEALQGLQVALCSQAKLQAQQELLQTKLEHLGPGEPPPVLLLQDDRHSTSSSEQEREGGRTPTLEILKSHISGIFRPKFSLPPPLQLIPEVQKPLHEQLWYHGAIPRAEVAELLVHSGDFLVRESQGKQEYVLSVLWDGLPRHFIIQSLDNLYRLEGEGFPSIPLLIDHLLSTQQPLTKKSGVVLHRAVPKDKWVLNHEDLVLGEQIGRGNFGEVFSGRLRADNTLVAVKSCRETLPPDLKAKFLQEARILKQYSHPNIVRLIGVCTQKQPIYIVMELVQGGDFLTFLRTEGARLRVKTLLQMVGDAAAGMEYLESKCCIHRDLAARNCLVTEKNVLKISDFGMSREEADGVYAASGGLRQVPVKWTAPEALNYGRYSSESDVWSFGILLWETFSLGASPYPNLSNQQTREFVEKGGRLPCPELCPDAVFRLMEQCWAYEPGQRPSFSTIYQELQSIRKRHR
Chain of MERTK (Q12866 whole entry, looked up): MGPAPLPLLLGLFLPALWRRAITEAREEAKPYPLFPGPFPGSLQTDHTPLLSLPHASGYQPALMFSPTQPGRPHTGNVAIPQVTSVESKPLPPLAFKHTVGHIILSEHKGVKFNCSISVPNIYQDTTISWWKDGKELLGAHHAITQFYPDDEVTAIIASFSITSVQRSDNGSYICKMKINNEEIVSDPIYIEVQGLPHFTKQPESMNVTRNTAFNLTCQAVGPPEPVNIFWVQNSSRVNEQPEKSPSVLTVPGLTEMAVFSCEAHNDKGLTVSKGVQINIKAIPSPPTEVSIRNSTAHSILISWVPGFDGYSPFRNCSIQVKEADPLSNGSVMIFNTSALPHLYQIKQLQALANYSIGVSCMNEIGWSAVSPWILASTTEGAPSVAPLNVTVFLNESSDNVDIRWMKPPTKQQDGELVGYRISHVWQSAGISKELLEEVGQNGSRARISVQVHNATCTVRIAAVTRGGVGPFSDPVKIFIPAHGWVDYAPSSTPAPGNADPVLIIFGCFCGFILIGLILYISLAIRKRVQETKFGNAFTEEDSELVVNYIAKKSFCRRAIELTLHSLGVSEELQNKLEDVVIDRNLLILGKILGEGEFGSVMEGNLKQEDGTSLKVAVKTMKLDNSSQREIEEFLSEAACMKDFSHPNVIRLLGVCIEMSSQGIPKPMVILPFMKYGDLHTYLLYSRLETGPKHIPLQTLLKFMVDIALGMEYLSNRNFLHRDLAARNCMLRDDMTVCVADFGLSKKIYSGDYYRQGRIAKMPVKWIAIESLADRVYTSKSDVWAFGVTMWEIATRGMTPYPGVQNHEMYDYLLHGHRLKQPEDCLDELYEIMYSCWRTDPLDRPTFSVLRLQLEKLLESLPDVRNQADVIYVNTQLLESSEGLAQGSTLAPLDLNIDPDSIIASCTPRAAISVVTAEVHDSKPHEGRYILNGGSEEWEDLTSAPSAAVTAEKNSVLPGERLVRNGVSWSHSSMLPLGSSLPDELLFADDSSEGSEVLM
Chain of FGFR3 (P22607 whole entry, looked up): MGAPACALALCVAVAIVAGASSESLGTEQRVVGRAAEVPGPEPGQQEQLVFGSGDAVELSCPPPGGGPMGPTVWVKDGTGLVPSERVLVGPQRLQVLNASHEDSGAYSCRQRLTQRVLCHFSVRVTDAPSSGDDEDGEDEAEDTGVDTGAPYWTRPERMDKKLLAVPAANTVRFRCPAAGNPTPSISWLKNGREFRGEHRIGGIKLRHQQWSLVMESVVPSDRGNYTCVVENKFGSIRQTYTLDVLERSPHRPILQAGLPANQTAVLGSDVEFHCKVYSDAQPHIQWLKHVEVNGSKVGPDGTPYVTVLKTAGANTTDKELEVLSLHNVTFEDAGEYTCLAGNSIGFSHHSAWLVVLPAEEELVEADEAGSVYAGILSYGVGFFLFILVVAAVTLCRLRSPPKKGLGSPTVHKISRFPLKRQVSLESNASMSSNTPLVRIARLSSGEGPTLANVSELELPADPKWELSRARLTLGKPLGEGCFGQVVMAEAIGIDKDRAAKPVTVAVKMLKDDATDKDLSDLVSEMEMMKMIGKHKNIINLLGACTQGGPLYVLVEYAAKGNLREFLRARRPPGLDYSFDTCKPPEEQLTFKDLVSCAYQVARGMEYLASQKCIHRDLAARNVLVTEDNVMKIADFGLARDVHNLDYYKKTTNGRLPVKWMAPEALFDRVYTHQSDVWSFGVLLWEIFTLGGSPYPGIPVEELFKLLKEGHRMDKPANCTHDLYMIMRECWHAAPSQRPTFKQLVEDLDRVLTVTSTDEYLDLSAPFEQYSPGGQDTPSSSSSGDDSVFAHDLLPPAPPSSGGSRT

Sequence	SH2 binding enrichment (Grb2 SH2)	SH2 binding enrichment (c-Src SH2)	SH2 binding enrichment (SHP2-C SH2)	phosphorylation enrichment (FGFR1)	phosphorylation enrichment (c-Abl (mouse))	phosphorylation enrichment (FGFR3)	phosphorylation enrichment (Fes)	phosphorylation enrichment (Jak2)	phosphorylation enrichment (EPHB1)	phosphorylation enrichment (c-Src)	phosphorylation enrichment (Fyn)	phosphorylation enrichment (AncSZ)	phosphorylation enrichment (Fer (mouse))	phosphorylation enrichment (EPHB2)	phosphorylation enrichment (Hck)	phosphorylation enrichment (MERTK)
YGGLRCGYGVL [KRTAP20-2_Y13_Y13C]	0.829	0.569	0.642	0.826	0.589	0.632	1.01	0.794	0.623	1.05	1	0.857	0.473	0.543	1.5	0.369
ISIFHCAKGQP [MPZ_Y82_Y82C]	1.04	0.524	0.521	0.729	0.954	1.02	1.7	1.41	0.773	0.609	0.602	1.33	0.643	0.845	0.608	0.62
ADFFDYGHGLS [KHDRBS3_Y304_YF]	0.863	0.437	0.741	0.459	0.76	0.727	0.905	1.03	0.585	0.449	0.438	0.709	0.433	0.38	0.522	0.434
AVLSLCASGRT [ACTA2_Y145_Y145C]	0.807	0.488	0.857	0.505	0.606	0.592	0.955	0.959	0.58	0.357	0.366	0.898	0.545	0.639	0.448	0.402
SISLKYEGRVF [ABL1_Y167_R166K_YF]	0.86	0.489	0.987	0.482	0.661	0.771	1.31	1.13	0.655	0.398	0.477	1.05	0.565	0.609	0.553	0.382
KENITYMKSEQ [L1TD1_Y24_R27S]	1.01	0.53	0.629	0.456	0.503	0.524	0.767	0.585	0.411	0.425	0.358	0.806	0.32	0.426	0.457	0.39
LYSINYLHFGE [KDM4C_Y201]	1.54	1.31	2.6	3.6	2.08	3.52	1.57	1.1	10.7	2.56	3.5	2.05	11.1	9.01	3.5	11
KDHPDYKYQRR [SOX10_Y171_P175R]	1.03	0.829	1.17	0.402	0.516	0.369	0.574	0.519	0.33	0.319	0.283	0.483	0.303	0.3	0.367	0.349

Now from value to sequence, other results behind:

SH2 binding enrichment (Grb2 SH2)	SH2 binding enrichment (c-Src SH2)	SH2 binding enrichment (SHP2-C SH2)	Sequence	phosphorylation enrichment (FGFR1)	phosphorylation enrichment (c-Abl (mouse))	phosphorylation enrichment (FGFR3)	phosphorylation enrichment (Fes)	phosphorylation enrichment (Jak2)	phosphorylation enrichment (EPHB1)	phosphorylation enrichment (c-Src)	phosphorylation enrichment (Fyn)	phosphorylation enrichment (AncSZ)	phosphorylation enrichment (Fer (mouse))	phosphorylation enrichment (EPHB2)	phosphorylation enrichment (Hck)	phosphorylation enrichment (MERTK)
0.762	0.431	0.873	GSESDYIIMPN [SCARB1_Y133_V135I]	5.65	0.466	3.91	0.826	0.919	6.96	0.6	0.456	2.88	0.411	6.96	0.526	0.551
0.696	0.543	0.558	LQRVQCDLQKA [DSP_Y1512_Y1512C]	1.06	0.987	1.31	1.16	1.43	1.12	0.709	0.811	1.14	0.809	0.827	0.812	0.762
0.709	0.468	0.623	VDLIVYLRTNP [TK2_Y181]	0.358	0.875	0.711	1.26	1.06	0.65	0.364	0.434	1.12	0.432	0.589	0.352	0.328
1.25	0.729	1.05	ERWLKYFPIEQ [HS3ST5_Y244]	0.452	0.624	0.798	1.27	0.855	0.401	0.288	0.361	1.05	0.566	0.566	0.436	0.451
0.79	0.548	0.631	SNMPSYSGHFT [GRIN2A_Y1224_T1223S]	0.328	0.444	0.421	0.599	0.614	0.417	0.463	0.465	0.476	1.6	0.408	0.425	0.411
0.79	0.486	0.508	EKEQNYDLTQV [ECD_Y448_E452Q]	0.612	1.42	0.782	1.33	1.07	0.513	0.506	0.557	1.24	1.17	0.612	0.528	0.569
0.828	0.522	0.701	LYSGDCYRIQG [DDR2_Y740_Y740C]	0.956	0.808	1.11	1.18	1.04	1.8	1.22	1.18	1.05	0.73	1.3	1.16	6.98
1.62	1.23	1.59	MGRVKYGAFIN [GLB1_Y485_N484K_YF]	0.402	0.532	0.453	0.701	0.528	0.368	0.458	0.382	0.566	0.348	0.376	0.439	0.443
0.688	0.458	0.844	DAASNYARGHF [TUBA3E_Y103_YF]	0.41	0.537	0.526	0.584	0.604	0.502	0.394	0.398	0.503	0.403	0.514	0.47	0.465
0.753	0.432	0.593	TENAGYFFRIS	0.511	0.925	0.868	1.42	1.46	0.733	0.514	0.511	1.52	0.487	0.703	0.548	0.388
